The values that follow are results of earlier work, collected in PMC7663405.

The series has as its target CD80 (Homo sapiens) (UniProt P33681).
Chain of UniProt P33681 (P33681 35-242): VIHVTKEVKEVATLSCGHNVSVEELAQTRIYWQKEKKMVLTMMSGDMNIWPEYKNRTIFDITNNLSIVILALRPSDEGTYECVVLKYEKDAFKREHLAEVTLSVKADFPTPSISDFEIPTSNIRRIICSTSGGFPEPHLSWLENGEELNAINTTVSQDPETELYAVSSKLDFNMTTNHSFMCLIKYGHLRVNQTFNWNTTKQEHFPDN

What is called Kd is the constant that tells how readily two partners part at equilibrium. For the substance PD-L1 (from UniProt Q9NZQ7), the Kd is 1900 nM.
